Laboratory results as given in patent US20210079089A1 (SURROZEN OPERATING, published 2021).
Numbering of substitutions follows the chain as printed. Names may count otherwise.

B1: 001S-F11 (VHH)
VHH: QVQLVESGGGLVQAGGSLRLSCAASGRTFSSYAMSWFRQAPGKEREFVAVIGRSGGIKYYADSVKGRFTISRDNTINTVYLQMNNLTPEDTAIYYCATRRPFNSYNTEQSYDSWGRGTLVTVSS
B2: 009S-H03 (VHH)
VHH: DVQLVESGGGLVQAGESLRLSCAASGSIFSINTMGWYRQAPGKERELVAVITSGGKTVYADSVKGRFTITEDAAKNTVYLQMNSLKAEDTAVYYCYADSRSSWYDEYLEHWGQGTLVTVSS
B3: 009S-A03 (VHH)
VHH: QVQLVESGGGLVQAGDSLRLSCVVSGRTFSVYGVGWFRQAPGKEREVVAAVSASGGYTWYADSVKGRFTISRDNAKSTAFLQMNSLQPEDTAVYYCKAAPRWGGATAYWGQGTQVTVSS
B4: 013S-G04 (HC SEQ ID NO 15) (VHH)
VHH: AVQLVESGGGLVQAGGSLRLACAGSGRIFAIYDIAWYRQAPGNQRELVATIRPVVSETTYADAVKGRFTISRSNAMKTVYLQMNSLKSEDTAIYYCNAKRPWGTRDEYWGQGTLVTVSS
B5: 009S-B04 (VHH)
VHH: DVQLVESGGGLVQPGGSLRLSCAASGSIFMINTMAWYRQAPGNQRELVATIRPVVSETTYADAVKGRFTISRDNAKNTVYLQMNSLKSEDTAIYYCNAKRPWGTRDEYWGQGTLVTVSS
B6: 009S-F04 (VHH)
VHH: AVQLVESGGGVVQAGDSLTLSCTMSGRSLSSFAMGWFRRAPGKEREFVARISRGDGYTDEADSVKGRFTISRDNAKNTVYLQMNNVGPEDTAVYHCAAVQAVIGGTLTTAYDYWGQGTLVTVSS
B7: 009S-G04 (VHH)
VHH: EVQLVESGGGLVQAGGSLRVSCAASGGTFSRYHMGWFRQAPGKEREFVSAITWSGGRTYYADFVKGRFTISRDDARNTVYLQMSSLKPEDTAVYYCALTWAPTPTNRRSDYAYWGQGTQVTVSS
B8: 009S-H04 (VHH)
VHH: B4 VHH with A1E, I34M
B9: 009S-A05 (VHH)
VHH: AVQLVDSGGGLVQAGDSLTLSCAASGRTFSDYSMGWFRQAPGKEREFVAGISWIADNRYYADVVKGRFTISRDNAKNTVYLQMNSLKPEDTAVYYCTAGRSRYLYGSSLNGPYDYWGQGTQVTVSS
B10: 013S-H04 (HC SEQ ID NO 16) (VHH)
VHH: AVQLVDSGGGLVQAGGSLRLSCAVSGRTFSMYDMGWFRQAPGKEREFVASIRWSSGNTWYADSMKGRFTISRDNAKNTVYLQMNSLKPEDTAVYYCYANIYYTRRAPEEYWGQGTLVTVSS
B11: 013S-G04 (HC SEQ ID NO 19) (VHH)
VHH: B4 VHH
B12: 013S-H04 (HC SEQ ID NO 20) (VHH)
VHH: B10 VHH
B13: 013S-A05 (VHH)
VHH: EVQLVESGGGLVQAGGSLRLSCATSGRTFNTYAMGWFRQAPGKEREFVASVSWRYDRTYYTDTVKGRFTISRDNAKNTVYLQMNSLKPEDTAVYFCAADTNWRAGPRVGIDEYAYWGQGTLVTVSS
B14: 013S-C05 (HC SEQ ID NO 22) (VHH)
VHH: EVQLVESGGGLVQPGGSLRLSCAVSRNIFPIDDMSWYRQAPGKQRELVATVTSGGRINYADSVKGRFTISRDGARRTIDLQMNNLKPEDTAVYYCNVDRTLYGKYKEYWGQGTLVTVSS
B15: 013S-D05 (HC SEQ ID NO 23) (VHH)
VHH: QVKLEESGGGLVQAGGSLRLSCAASGRIFSIYDMGWFRQAPGKEREFVSGIRWSGGTSYADSVKGRFTISKDNAKNTIYLQMNNLKAEDTAVYYCGSRGYWGQGTLVTVSS
B16: 009S-E04 K1A (VHH)
VHH: DVQLVESGGGLVQAGGSLRLACAGSGRIFAIYDIAWYRHPPGNQRELVAMIRPVVTEIDYADSVKGRFTISRNNAMKTVYLQMNNLKPEDTAVYYCNAARPWGSRDEYWGQGTQVTVSS
B17: 009S-E04 D8A (VHH)
VHH: B16 VHH with A99K, D106A
B18: 009S-E04 E9A (VHH)
VHH: B16 VHH with A99K, E107A
B19: 009S-E04 G5A (VHH)
VHH: B16 VHH with A99K, G103A
B20: 009S-E04 P3A (VHH)
VHH: B16 VHH with A99K, P101A
B21: 009S-E04 R2A (VHH)
VHH: B16 VHH with A99K, R100A
B22: 009S-E04 R7A (VHH)
VHH: B16 VHH with A99K, R105A
B23: 009S-E04 S6A (VHH)
VHH: B16 VHH with A99K, S104A
B24: 009S-E04 W4A (VHH)
VHH: B16 VHH with A99K, W102A
B25: 009S-E04 Y10A (VHH)
VHH: B16 VHH with A99K, Y108A

What was measured:
LRP6e1e2 [1] = target: T1, LRP6e1e2 (UniProt O75581 20-630, limits assumed, C-terminally biotinylated); assay: Octet BLI or BIAcore SPR
T1 construct: domain: E1E2; also called LRP6 E1E2 domains
T1 sequence (looked up): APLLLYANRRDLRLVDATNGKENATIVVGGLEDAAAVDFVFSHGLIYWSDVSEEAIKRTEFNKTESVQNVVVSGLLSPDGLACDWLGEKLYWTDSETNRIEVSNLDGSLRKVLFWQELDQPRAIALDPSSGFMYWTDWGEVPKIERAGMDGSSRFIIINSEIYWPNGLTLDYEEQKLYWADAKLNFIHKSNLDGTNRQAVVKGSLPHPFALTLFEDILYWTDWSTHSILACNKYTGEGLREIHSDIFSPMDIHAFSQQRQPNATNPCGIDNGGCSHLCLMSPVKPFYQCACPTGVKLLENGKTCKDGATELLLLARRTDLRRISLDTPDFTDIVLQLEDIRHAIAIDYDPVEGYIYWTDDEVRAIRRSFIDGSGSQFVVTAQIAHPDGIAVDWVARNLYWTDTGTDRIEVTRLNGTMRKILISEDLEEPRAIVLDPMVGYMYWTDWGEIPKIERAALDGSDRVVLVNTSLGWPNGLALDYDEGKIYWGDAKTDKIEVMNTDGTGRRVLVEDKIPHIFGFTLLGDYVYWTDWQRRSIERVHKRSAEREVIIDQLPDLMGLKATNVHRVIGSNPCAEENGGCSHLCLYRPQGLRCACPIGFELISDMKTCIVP

LRP6e1e2 [2] = target: T1, LRP6e1e2; assay: Octet BLI, affinity class
Description: (§1) Binding kinetics of antibody fragments to LRP5 extracellular domain (LRP5 ECD) and/or LRP6 extracellular domain (LRP6 ECD) protein targets was determined by bio-layer interferometry (BLI) using Octet Red 96 (PALL ForteBio, Fremont, Calif.) instruments at 30° C., 1000 rpm with streptavidin (SA) biosensors. C-terminal biotinylated LRP ECD recombinant protein was diluted to 20 nM in the running buffer (PBS, 0.05% Tween-20, 0.5% BSA, pH 7.2) and captured to the SA biosensor until coupling length reached 0.2 nm. Following capture of the LRP5 or LRP6, the SA biosensor with captured biotinylated-LRP5 or biotinylated LRP6 was dipped into wells containing the relevant antibody fragment at […] (0, 1.37, 4.12, 12.4, 37, 111.1, 333.3, 1000 nM) in running buffer, plus a well with only running buffer as a reference channel. KD was determined by global fitting, 1:1 binding model according to manufacturer recommended settings.

LRP6E3E4_O75581_631-1246 [3] = target: T2, LRP6E3E4_O75581_631-1246 (Homo sapiens (Human), UniProt O75581 631-1246, biotinylated in the BLI/SPR assays (C-terminal biotin acceptor peptide)); assay: Octet BLI, affinity class
T2 construct: The entry holds residues 631-1246 of UniProt O75581 followed by a biotin acceptor peptide and eight His
T2 sequence: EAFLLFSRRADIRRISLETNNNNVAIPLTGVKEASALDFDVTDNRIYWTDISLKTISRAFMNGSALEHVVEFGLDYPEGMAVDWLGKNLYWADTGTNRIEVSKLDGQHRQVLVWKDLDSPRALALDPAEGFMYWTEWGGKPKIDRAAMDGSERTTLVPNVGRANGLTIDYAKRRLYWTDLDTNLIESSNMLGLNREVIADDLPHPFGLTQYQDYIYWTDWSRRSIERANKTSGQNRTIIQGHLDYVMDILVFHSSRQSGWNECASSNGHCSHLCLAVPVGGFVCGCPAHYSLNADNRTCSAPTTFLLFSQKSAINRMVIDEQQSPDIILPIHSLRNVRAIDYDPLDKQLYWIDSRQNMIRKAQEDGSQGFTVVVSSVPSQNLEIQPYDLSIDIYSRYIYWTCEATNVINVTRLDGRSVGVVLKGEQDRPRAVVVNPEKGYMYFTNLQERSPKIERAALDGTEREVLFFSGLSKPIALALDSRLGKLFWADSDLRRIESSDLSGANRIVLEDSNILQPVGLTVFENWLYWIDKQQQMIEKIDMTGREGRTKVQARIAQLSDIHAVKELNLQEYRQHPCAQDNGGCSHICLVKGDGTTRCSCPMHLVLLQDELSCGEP
Description: as §1

LRP6E3E4_O75581_631-1246 [4] = target: T2, LRP6E3E4_O75581_631-1246; assay: Octet BLI or BIAcore SPR
LRP6e1e2 [5] = target: T1, LRP6e1e2; assay: Octet BLI
Description: as §1

biotinylated-LRP6 CRD = target: T3, biotinylated-LRP6 CRD (UniProt O75581 631-1246, limits assumed, biotinylated); assay: Octet BLI, biotinylated LRP6
T3 construct: LRP6 has no CRD
T3 sequence (looked up): T2 sequence
Description: as §1
One antibody fragment, 009S-E04, was selected for alanine-scanning mutagenesis of CDRs, and the respective LRP6 binding affinities of the various mutants were determined by Octet BLI as described in Example 1.

| Kd (LRP6E3E4_O75581_631-1246 [3]) | Kd (LRP6E3E4_O75581_631-1246 [4]) | Kd (biotinylated-LRP6 CRD) | also measured | Binder |
| --- | --- | --- | --- | --- |
| – | – | – | Kd (LRP6e1e2 [1]): < 500 nM | B1 |
| < 500 nM | – | – | Kd (LRP6e1e2 [2]): < 500 nM; Kd (LRP6e1e2 [1]): < 500 nM | B2 |
| > 500 nM | – | – | Kd (LRP6e1e2 [2]): < 500 nM; Kd (LRP6e1e2 [1]): < 500 nM | B3 |
| < 500 nM | < 500 nM | – | binding result (LRP6e1e2 [5]): no binding | B4 |
| < 500 nM | < 500 nM | – | binding result (LRP6e1e2 [5]): no binding | B5 |
| > 500 nM | > 500 nM | – | – | B6 |
| < 500 nM | < 500 nM | – | binding result (LRP6e1e2 [5]): no binding | B7 |
| < 500 nM | < 500 nM | – | binding result (LRP6e1e2 [5]): no binding | B8 |
| > 500 nM | > 500 nM | – | – | B9 |
| < 500 nM | < 500 nM | – | binding result (LRP6e1e2 [5]): no binding | B10 |
| – | < 500 nM | – | – | B11 |
| – | < 500 nM | – | – | B12 |
| – | > 500 nM | – | – | B13 |
| – | < 500 nM | – | – | B14 |
| – | < 500 nM | – | – | B15 |
| – | – | < 100 nM | – | B16 |
| – | – | < 100 nM | – | B17 |
| – | – | < 100 nM | – | B18 |
| – | – | < 100 nM | – | B19 |
| – | – | < 100 nM | – | B20 |
| – | – | < 100 nM | – | B21 |
| – | – | < 100 nM | – | B22 |
| – | – | < 100 nM | – | B23 |
| – | – | < 100 nM | – | B24 |
| – | – | < 100 nM | – | B25 |
